What was measured:
[1] = target: FL HA H1N1 (influenza A virus H1N1); assay: SEC-MALS of FL HA with Fab; theoretical value for trimer with 3 Fabs in brackets
[2] = target: sH1 mini-HA GW1.5E2-FFH; conditions: remark: other sources report otherwise
[3] = target: T1, sH1 mini-HA GW1.5E2-FFH (Influenza A virus H1N1 A/Brisbane/59/2007); assay: SEC-MALS with Fab fragments; conditions: remark: other sources report otherwise
[4] = target: s86B4; assay: SEC-MALS of polypeptide with Fab; conditions: remark: other sources report otherwise
[5] = target: s74H9; assay: SEC-MALS of polypeptide with Fab; conditions: remark: other sources report otherwise
[6] = target: s55G7; assay: SEC-MALS of polypeptide with Fab; conditions: remark: other sources report otherwise
[7] = target: s6E12; assay: SEC-MALS of polypeptide with Fab; conditions: remark: other sources report otherwise
[8] = target: s127H1; assay: SEC-MALS of polypeptide with Fab; conditions: remark: other sources report otherwise
[9] = target: T1, sH1 mini-HA GW1.5E2-FFH (Influenza A …); assay: biolayer interferometry (Octet), apparent Kd; CR6261; conditions: remark: other sources report otherwise

Question: Fab fragment of CR9114 was tested. Which Mw of protein in complex with CRF9114, observed [1] did it give?
Answer: 343 kDa

Question: How did the Mw of protein in complex with CRF6261, observed [1] turn out when Fab fragment of CR6261 was run?
Answer: 396 kDa

B1: Fab fragment of CR6261 (Fab, V domains shown)
VH: EVQLVESGAEVKKPGSSVKVSCKASGGPFRSYAISWVRQAPGQGPEWMGGIIPIFGTTKYAPKFQGRVTITADDFAGTVYMELSSLRSEDTAMYYCAKHMGYQVRETMDVWGKGTTVTVSS
VL: QSVLTQPPSVSAAPGQKVTISCSGSSSNIGNDYVSWYQQLPGTAPKLLIYDNNKRPSGIPDRFSGSKSGTSATLGITGLQTGDEANYYCATWDRRPTAYVVFGGGTKLTVLG
Question: How did the Mw of protein in complex with CRF6261, observed [2] turn out when B1 was run?
Answer: 201 kDa

Question: And the Fab fragments bound per trimer (Fab fragments per trimer) [3]?
Answer: 3

Question: And the MW complex with CR6261, observed [4]?
Answer: 75 kDa

Question: What about the MW complex with CR6261, observed [5] of the same molecule?
Answer: 72 kDa

Question: And the MW complex with CR6261, observed [6]?
Answer: 66 kDa

Question: And the MW complex with CR6261, observed [7]?
Answer: 67 kDa

Question: And the MW complex with CR6261, observed [8]?
Answer: 74 kDa

B2: monoclonal antibody CR6261 (antibody, V domains shown)
VH: B1 VH
VL: B1 VL
Question: B2 was tested. Which Kd [9] did it give?
Answer: 1 nM
